Data taken from the supplement of paper PMC6757056.
± gives the standard deviation of the averaged measurements.

B1: library; a variant is named by its letters at N, in order (parent)
chain: GCUGUCACCGGUGCUUGGUACGUUAUAUUCAGCCGGUCUGAUGAGUCUNNNNNNAGACGAAACAGC

What was measured:
[1] = variants of: B1; assay: FACS-Seq fitted mean relative fluorescence mCherry/BFP without ligand (log10 relative fluorescence); HEK293T overexpressing SLC46A1; higher = higher reporter protein expression; conditions: without (6R,S)-folinic acid; ligand present: no
Method in brief: (§1)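 HEK293T libraries were lentivirally transduced with an mCherry reporter carrying the ribozyme switch and an EF1α-BFP marker, enriched, and incubated for 48 h with or without ligand before sorting into 6 bins by mCherry/BFP. Genomic DNA from each bin was PCR-amplified, barcoded and sequenced on MiSeq. Fluorescence is the fitted normal mean of the bin counts. The fit used log10(mCherry/BFP), and means were scaled to five spiked-in control ribozymes.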

[2] = variants of: B1; assay: normalized RNA/DNA level without ligand (relative to sTRSVctl = 100) (log10 (% of sTRSVctl)); HEK293T overexpressing SLC46A1; higher = less ribozyme self-cleavage, higher mRNA level; conditions: without (6R,S)-folinic acid; ligand present: no
Description: (§2)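 Hammerhead (sTRSV) ribozyme switch libraries with a ligand aptamer grafted on stem I and a randomized N4-6 loop II, cloned into the 3' UTR of mCherry and transiently transfected into HEK293T cells; RNA-Seq 72 h post transfection with ligand added 1 h before transfection; RNA read count / plasmid DNA read count normalized to the non-cleaving sTRSVctl (x100), log10; sequences with >100 DNA reads. FACS-Seq: lentiviral library sorted into 6 bins after 48 h ligand, log-normal fit mean of mCherry/BFP scaled to controls. Printed sequences are partial switch sequences.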

[3] = variants of: B1; assay: FACS-Seq fitted mean relative fluorescence mCherry/BFP with ligand (log10 relative fluorescence); HEK293T overexpressing SLC46A1; ligand concentration (+) FACS-Seq: 6 mM; higher = higher reporter protein expression; conditions: with (6R,S)-folinic acid; ligand present: yes
Method in brief: as §1

[4] = variants of: B1; assay: normalized RNA/DNA level with ligand (relative to sTRSVctl = 100) (log10 (% of sTRSVctl)); HEK293T overexpressing SLC46A1; ligand concentration (+) RNA-Seq: 6 mM; higher = less ribozyme self-cleavage, higher mRNA level; conditions: with (6R,S)-folinic acid; ligand present: yes
Description: as §2

Variant	FACS-Seq fitted mean (log10) [1]	normalized RNA/DNA level without ligand (log10) [2]	FACS-Seq fitted mean (log10) [3]	normalized RNA/DNA level with ligand (log10) [4]
UAAUGC	0.147 ± 0.059	1.946 ± 0.017	0.234 ± 0.13	1.98 ± 0.032
UAAUGA	0.29 ± 0.014	1.872 ± 0.006	0.227 ± 0.042	2 ± 0.022
UAAUGG	0.152 ± 0.043	1.601 ± 0.011	0.399 ± 0.18	1.923 ± 0.0091
UAAUGU	0.615 ± 0.038	1.896 ± 0.0068	0.695 ± 0.092	2 ± 0.055
AACAAU	0.338 ± 0.22	1.935 ± 0.0082	0.122 ± 0.3	1.97 ± 0.039
AACAAC	-0.0136 ± 0.067	2.028 ± 0.006	-0.491 ± 0.14	2.02 ± 0.024
AACAAA	0.414 ± 0.011	1.967 ± 0.017	0.365 ± 0.15	1.99 ± 0.021
AACAAG	0.152 ± 0.031	1.923 ± 0.0084	0.113 ± 0.2	2.02 ± 0.036
UACAGA	0.358 ± 0.072	1.913 ± 0.011	0.548 ± 0.15	1.99 ± 0.037
UACAGU	0.183 ± 0.13	1.92 ± 0.021	0.133 ± 0.26	1.994 ± 0.0074
UACAGG	0.254 ± 0.021	1.661 ± 0.0093	0.489 ± 0.051	1.96 ± 0.033
GACAAC	0.378 ± 0.076	1.987 ± 0.0049	0.472 ± 0.21	2.004 ± 0.013
GACAAA	0.367 ± 0.089	1.974 ± 0.0039	0.306 ± 0.081	2.007 ± 0.019
AAAUGG	0.445 ± 0.096	1.87 ± 0.0028	0.499 ± 0.072	2 ± 0.031
AAAUGC	0.594 ± 0.028	2.03 ± 0.007	0.713 ± 0.3	2.03 ± 0.033
AAAUGA	0.485 ± 0.018	1.963 ± 0.005	0.406 ± 0.022	2.04 ± 0.044
GACAUU	0.457 ± 0.096	2.024 ± 0.013	0.529 ± 0.11	2 ± 0.064
GACAUA	0.346 ± 0.14	1.984 ± 0.0071	0.3032 ± 0.002	2.01 ± 0.044
CAAGGA	0.62 ± 0.052	1.981 ± 0.019	0.722 ± 0.17	1.99 ± 0.052
CAAGGG	-0.428 ± 0.17	1.88 ± 0.02	-0.164 ± 0.057	1.99 ± 0.013
AAAUCG	0.416 ± 0.0066	1.955 ± 0.0094	0.42 ± 0.12	2.03 ± 0.036
AAAUCC	0.504 ± 0.068	2.044 ± 0.013	0.398 ± 0.23	2.03 ± 0.044
CAAGCU	0.363 ± 0.071	2.047 ± 0.0037	0.443 ± 0.099	2.05 ± 0.043
CAAGCA	0.195 ± 0.065	2.018 ± 0.012	0.434 ± 0.14	2.03 ± 0.032

Variant	FACS-Seq fitted mean (log10) [1]	normalized RNA/DNA level without ligand (log10) [2]	FACS-Seq fitted mean (log10) [3]	normalized RNA/DNA level with ligand (log10) [4]
AACCUA	-0.147 ± 0.17	2.0051 ± 8.4e-05	-0.514 ± 0.18	2.02 ± 0.034
AACCUU	0.578 ± 0.19	2.044 ± 0.0052	0.59 ± 0.22	2.042 ± 0.02
AAAUAC	0.31 ± 0.028	1.988 ± 0.0076	0.0315 ± 0.22	2 ± 0.03
AAAUAU	0.147 ± 0.058	1.949 ± 0.002	0.275 ± 0.077	2 ± 0.039
AAAUAA	0.0525 ± 0.017	1.94 ± 0.023	0.383 ± 0.051	1.98 ± 0.038
AAAUAG	-0.0965 ± 0.1	1.903 ± 0.006	-0.332 ± 0.53	1.98 ± 0.022
UACCGU	0.352 ± 0.017	1.989 ± 0.0026	0.431 ± 0.11	2.02 ± 0.048
UACCGC	0.235 ± 0.05	1.988 ± 0.017	0.503 ± 0.22	1.99 ± 0.066
UACCGA	0.3629 ± 0.0013	1.9669 ± 0.00083	0.4406 ± 0.0022	2.04 ± 0.048
UACCGG	0.355 ± 0.059	1.982 ± 0.019	0.676 ± 0.1	2.004 ± 0.0069
AACGAG	0.367 ± 0.0092	1.82 ± 0.032	0.501 ± 0.065	1.984 ± 0.01
AACGAA	0.105 ± 0.2	1.9508 ± 0.00076	0.0527 ± 0.083	1.99 ± 0.045
CACGCA	0.164 ± 0.12	2.025 ± 0.013	0.119 ± 0.063	2.024 ± 0.011
GACGAG	-0.054 ± 0.034	1.907 ± 0.0022	0.319 ± 0.29	2.01 ± 0.037
GACGAU	0.612 ± 0.086	1.954 ± 0.0091	0.648 ± 0.068	2 ± 0.037
GACGAA	0.551 ± 0.09	1.963 ± 0.0039	0.69 ± 0.21	2 ± 0.04
AACCGG	0.00166 ± 0.089	2.032 ± 0.0087	-0.0748 ± 0.11	2.04 ± 0.033
AAACGG	0.359 ± 0.076	1.903 ± 0.013	0.384 ± 0.1	2.006 ± 0.016
AAACGU	0.248 ± 0.096	1.966 ± 0.011	0.326 ± 0.22	2 ± 0.024
AACCAG	0.421 ± 0.13	1.966 ± 0.015	0.407 ± 0.2	2.0092 ± 0.00083
AACCAU	0.386 ± 0.012	1.976 ± 0.014	0.303 ± 0.018	2 ± 0.057
AACCAA	0.377 ± 0.016	1.989 ± 0.0067	0.433 ± 0.11	2 ± 0.028
AAACUG	0.318 ± 0.15	1.933 ± 0.0021	0.151 ± 0.091	2 ± 0.037
UACCCG	0.166 ± 0.063	1.92 ± 0.03	0.279 ± 0.24	1.977 ± 0.0043

Variant	FACS-Seq fitted mean (log10) [1]	normalized RNA/DNA level without ligand (log10) [2]	FACS-Seq fitted mean (log10) [3]	normalized RNA/DNA level with ligand (log10) [4]
GACGGA	0.373 ± 0.037	1.991 ± 0.014	0.557 ± 0.19	2.05 ± 0.033
CACGAU	0.217 ± 0.11	1.99 ± 0.027	0.334 ± 0.6	2.01 ± 0.021
GAAUUG	0.416 ± 0.035	1.928 ± 0.0066	0.46 ± 0.014	2 ± 0.066
GAAUUA	0.508 ± 0.088	2.0059 ± 0.0002	0.572 ± 0.15	2.03 ± 0.031
CAAUAA	0.248 ± 0.034	1.934 ± 0.017	0.463 ± 0.091	1.97 ± 0.031
CAAUAG	0.376 ± 0.018	1.942 ± 0.0058	0.641 ± 0.16	2.011 ± 0.0065
UAAGCA	0.463 ± 0.0091	1.9355 ± 0.00085	0.377 ± 0.12	1.99 ± 0.021
UAAGCU	0.334 ± 0.089	1.992 ± 0.014	0.436 ± 0.13	2.021 ± 0.0075
UAAGCG	0.384 ± 0.026	1.736 ± 0.0051	0.777 ± 0.031	1.96 ± 0.045
AAAGGC	0.486 ± 0.051	2.041 ± 0.0056	0.631 ± 0.18	2.04 ± 0.034
AAAGGG	0.172 ± 0.033	1.671 ± 0.016	0.631 ± 0.087	1.97 ± 0.049
AAAGGA	0.158 ± 0.1	1.909 ± 0.007	0.355 ± 0.16	2 ± 0.027
UACCAC	0.907 ± 0.028	1.971 ± 0.0041	0.651 ± 0.047	1.994 ± 0.012
UAAUUG	0.377 ± 0.016	1.794 ± 0.0071	0.456 ± 0.012	1.972 ± 0.017
AACGCU	0.282 ± 0.034	2.01 ± 0.0054	0.217 ± 0.34	2 ± 0.035
AACGCC	0.452 ± 0.091	2.0652 ± 0.0011	0.336 ± 0.023	2.07 ± 0.046
AACGCA	0.404 ± 0.048	2.001 ± 0.013	0.533 ± 0.023	2 ± 0.035
GACCCU	0.102 ± 0.065	2.065 ± 0.0032	-0.257 ± 0.21	2.04 ± 0.035
AACAGG	0.475 ± 0.12	1.904 ± 0.01	0.351 ± 0.0077	2 ± 0.031
AACAGA	0.344 ± 0.11	1.964 ± 0.01	0.425 ± 0.04	2 ± 0.028
AACAGU	-0.296 ± 0.34	1.94 ± 0.018	0.0957 ± 0.15	2.001 ± 0.0087
AACACG	0.361 ± 0.13	1.938 ± 0.0019	0.436 ± 0.18	2 ± 0.045
CAAUUC	-0.0653 ± 0.041	2.019 ± 0.012	-0.136 ± 0.18	1.998 ± 0.016
